Here are results for 2 substances from publication PMC4347018.

Assay [1] has as its target Cytolysin A (ClyA) wild type, N-terminally His6-tagged (E. coli) (UniProt P77335). Nature of the assay: FRET or BRET + cross-linking; rate coefficient of pore closure in the non-sequential assembly model fitted to the single-molecule FRET data, set so that the predicted formation of complete pores matches the cross-linking data (500 nM ClyAwt, 0.1% DDM, 22 °C).
For assay [2] the target is unchanged. Nature of the assay: FRET or BRET; single-molecule intramolecular FRET of ~100 pM labelled ClyA freely diffusing, with 5 nM to 5 uM unlabelled ClyAwt; assembly triggered with 0.1% (w/v) DDM by manual mixing; 22 °C; 20 mM potassium phosphate pH 7.3, 150 mM NaCl, 0.001% Tween-20, 10 mM DTT; global fit of the histogram time series with the non-sequential assembly model (irreversible steps). Background: Bioluminescence resonance energy transfer reports proximity on the nanometre scale.

As to “Cytolysin A (ClyA) wild type, N-terminally His6-tagged (from UniProt P77335 2-303) (natural protein)”, the k6 (association rate coefficient of pore closure, two oligomers to the complete pore) in assay [1] was more than 1e+07 M⁻¹ s⁻¹.

The substance “ClyA Q56C/E252C labelled with Alexa Fluor 488 at Cys56 and Alexa Fluor 594 at Cys252 (from UniProt P77335 2-303) (natural protein)” came in with a k5 (association rate coefficient of all oligomerization steps that lead to incomplete pores) in assay [2] of 102000 M⁻¹ s⁻¹.
